Source: patent publication US20260232759A1, “PEPTIDES THAT INHIBIT INFECTION BY SARS-COV-2, THE VIRUS THAT CAUSES COVID-19 DISEASE” (Wisconsin Alumni Research Foundation, priority 2021, published 2026)
No end group written: not given here.

Target: SARS-CoV-2 Spike protein (SARS-CoV-2), P0DTC2
Experiment: cell-based or functional assay

B1: Bf APC/B3E (peptide)
peptide: DISQINASVVNIEYEIXKLEEVAXKLEESLIDLQELGSGSGC
modifications: not fully specified (C-terminus); also: α/β-peptide, β-residue positions not given here
Q: B1 was tested. Which inhibition of S-mediated cell-cell fusion (β-Gal complementation), IC50 did it give?
A: 50 nM
